From publication PMC6303191 (Immunity, 2018)
“And” between values parts separate entries of the source, which are not always exact repeats. Identical values can stand only once.

What was measured:
[1] = target: T1, eOD-GT8 (monomer), synthetic construct eOD-GT8-Avi-3C-His (synthetic construct (engineered HIV-1 …))
[2] = target: Ubiquitin Protein Ligase E3A (UBE3A) (Homo sapiens, assumed, UniProt Q05086); assay: ELISA; settings: both partners purified
Centromere protein B = target: T2, Centromere protein B (Homo sapiens (product PRO-390 from …, UniProt P07199)); assay: ELISA; settings: both partners purified
T2 construct: also called centromere B

Jo-1 antigen = Jo-1 antigen (Bos taurus (assumed), UniProt Q2KI84); assay: ELISA; settings: both partners purified
Scl-70 antigen = Scl-70 antigen (Bos taurus (assumed), UniProt A0AAA9TV68); assay: ELISA; settings: both partners purified
SSB (La) antigen = SSB (La) antigen (Bos taurus (assumed), UniProt P10881); assay: ELISA; settings: both partners purified
eOD-GT8 (24-mer) = eOD-GT8 (24-mer) (synthetic construct (engineered HIV-1 …)); assay: BLI; settings: both partners purified
eOD-GT8 (heptamer) = eOD-GT8 (heptamer) (synthetic construct (engineered HIV-1 …)); assay: BLI; settings: both partners purified
[3] = target: T1, eOD-GT8 (monomer), synthetic construct …; assay: SPR; settings: both partners purified
[4] = target: T3, eOD-GT6, synthetic construct eOD-GT6-Avi-3C-His (synthetic construct (engineered HIV-1 …)); assay: SPR; settings: both partners purified
T3 construct: source: produced in house (Duke Human Vaccine Institute and VRC/NIAID)
T3 sequence (heavy, as listed by the source): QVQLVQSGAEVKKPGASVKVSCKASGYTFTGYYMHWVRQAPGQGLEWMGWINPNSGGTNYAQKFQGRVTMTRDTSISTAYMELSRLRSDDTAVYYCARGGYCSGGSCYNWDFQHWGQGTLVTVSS

Sequence of Ubiquitin Protein Ligase E3A (UBE3A) (Q05086 whole entry): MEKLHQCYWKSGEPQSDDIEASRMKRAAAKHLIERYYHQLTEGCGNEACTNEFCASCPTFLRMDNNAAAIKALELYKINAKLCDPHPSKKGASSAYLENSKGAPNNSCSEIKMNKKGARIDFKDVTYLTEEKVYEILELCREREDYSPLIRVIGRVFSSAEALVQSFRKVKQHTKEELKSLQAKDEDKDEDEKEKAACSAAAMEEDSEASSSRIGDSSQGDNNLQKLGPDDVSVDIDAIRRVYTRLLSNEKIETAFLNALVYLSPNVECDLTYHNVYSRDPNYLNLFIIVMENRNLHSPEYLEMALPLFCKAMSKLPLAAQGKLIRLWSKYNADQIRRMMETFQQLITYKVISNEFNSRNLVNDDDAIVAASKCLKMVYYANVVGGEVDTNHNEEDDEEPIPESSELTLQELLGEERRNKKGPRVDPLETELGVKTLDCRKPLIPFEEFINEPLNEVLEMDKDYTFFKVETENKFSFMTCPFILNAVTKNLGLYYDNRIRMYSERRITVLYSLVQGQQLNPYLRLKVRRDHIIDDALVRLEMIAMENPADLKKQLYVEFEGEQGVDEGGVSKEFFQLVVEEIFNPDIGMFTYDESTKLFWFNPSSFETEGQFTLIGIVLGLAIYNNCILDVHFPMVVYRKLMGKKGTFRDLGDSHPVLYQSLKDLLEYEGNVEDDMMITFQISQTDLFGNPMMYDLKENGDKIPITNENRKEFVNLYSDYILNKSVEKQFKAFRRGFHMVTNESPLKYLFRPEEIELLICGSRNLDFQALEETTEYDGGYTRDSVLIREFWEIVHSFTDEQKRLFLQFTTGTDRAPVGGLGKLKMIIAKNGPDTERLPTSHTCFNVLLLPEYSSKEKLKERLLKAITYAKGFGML
T2 sequence (P07199 whole entry): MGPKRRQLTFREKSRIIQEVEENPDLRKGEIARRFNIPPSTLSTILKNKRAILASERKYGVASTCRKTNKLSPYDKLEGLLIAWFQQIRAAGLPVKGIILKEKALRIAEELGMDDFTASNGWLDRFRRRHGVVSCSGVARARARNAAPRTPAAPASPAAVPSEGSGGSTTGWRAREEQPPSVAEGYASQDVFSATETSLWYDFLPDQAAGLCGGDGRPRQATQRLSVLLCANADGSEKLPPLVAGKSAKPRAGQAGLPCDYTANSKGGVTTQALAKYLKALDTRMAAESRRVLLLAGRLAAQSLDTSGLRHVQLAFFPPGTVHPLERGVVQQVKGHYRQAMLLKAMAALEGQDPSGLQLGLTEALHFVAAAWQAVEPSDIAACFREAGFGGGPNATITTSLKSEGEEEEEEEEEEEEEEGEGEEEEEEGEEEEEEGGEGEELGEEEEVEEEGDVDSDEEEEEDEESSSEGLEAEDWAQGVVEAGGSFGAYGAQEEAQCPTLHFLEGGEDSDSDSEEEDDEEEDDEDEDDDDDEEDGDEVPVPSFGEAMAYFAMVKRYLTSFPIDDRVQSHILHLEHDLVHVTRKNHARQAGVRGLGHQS
Sequence of SSB (La) antigen (P05455 whole entry): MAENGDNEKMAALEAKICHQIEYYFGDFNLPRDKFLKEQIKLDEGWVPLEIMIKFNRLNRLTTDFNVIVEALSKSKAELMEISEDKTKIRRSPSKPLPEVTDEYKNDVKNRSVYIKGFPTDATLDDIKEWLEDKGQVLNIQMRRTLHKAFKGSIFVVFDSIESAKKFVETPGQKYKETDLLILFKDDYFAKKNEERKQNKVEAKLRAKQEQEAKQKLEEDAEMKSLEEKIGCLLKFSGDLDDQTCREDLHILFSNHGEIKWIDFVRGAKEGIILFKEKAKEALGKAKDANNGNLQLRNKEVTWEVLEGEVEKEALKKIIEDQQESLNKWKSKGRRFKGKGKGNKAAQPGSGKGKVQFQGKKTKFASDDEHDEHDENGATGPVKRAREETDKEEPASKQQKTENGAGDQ
Sequence of Scl-70 antigen (P11387 whole entry): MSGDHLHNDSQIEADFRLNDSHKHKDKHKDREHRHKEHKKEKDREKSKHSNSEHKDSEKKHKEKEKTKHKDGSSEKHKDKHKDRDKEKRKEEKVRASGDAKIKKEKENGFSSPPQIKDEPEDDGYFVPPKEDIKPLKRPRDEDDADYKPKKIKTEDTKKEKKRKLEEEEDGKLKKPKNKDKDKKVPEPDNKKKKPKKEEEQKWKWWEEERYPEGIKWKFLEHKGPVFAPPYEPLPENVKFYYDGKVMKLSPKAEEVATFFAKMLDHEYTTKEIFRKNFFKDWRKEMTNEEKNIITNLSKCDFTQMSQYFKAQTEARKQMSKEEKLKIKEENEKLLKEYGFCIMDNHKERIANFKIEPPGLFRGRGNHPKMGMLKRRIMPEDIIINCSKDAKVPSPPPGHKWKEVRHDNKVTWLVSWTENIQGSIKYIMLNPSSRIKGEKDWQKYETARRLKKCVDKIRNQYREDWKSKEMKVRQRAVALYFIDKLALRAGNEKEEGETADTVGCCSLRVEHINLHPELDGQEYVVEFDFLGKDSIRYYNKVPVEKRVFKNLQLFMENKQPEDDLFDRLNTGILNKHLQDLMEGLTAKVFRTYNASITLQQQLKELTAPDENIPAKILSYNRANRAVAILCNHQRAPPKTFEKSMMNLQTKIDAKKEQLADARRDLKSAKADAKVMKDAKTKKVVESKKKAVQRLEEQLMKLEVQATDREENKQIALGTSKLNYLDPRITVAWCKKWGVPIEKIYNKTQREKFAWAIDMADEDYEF
Sequence of Jo-1 antigen (P12081 whole entry): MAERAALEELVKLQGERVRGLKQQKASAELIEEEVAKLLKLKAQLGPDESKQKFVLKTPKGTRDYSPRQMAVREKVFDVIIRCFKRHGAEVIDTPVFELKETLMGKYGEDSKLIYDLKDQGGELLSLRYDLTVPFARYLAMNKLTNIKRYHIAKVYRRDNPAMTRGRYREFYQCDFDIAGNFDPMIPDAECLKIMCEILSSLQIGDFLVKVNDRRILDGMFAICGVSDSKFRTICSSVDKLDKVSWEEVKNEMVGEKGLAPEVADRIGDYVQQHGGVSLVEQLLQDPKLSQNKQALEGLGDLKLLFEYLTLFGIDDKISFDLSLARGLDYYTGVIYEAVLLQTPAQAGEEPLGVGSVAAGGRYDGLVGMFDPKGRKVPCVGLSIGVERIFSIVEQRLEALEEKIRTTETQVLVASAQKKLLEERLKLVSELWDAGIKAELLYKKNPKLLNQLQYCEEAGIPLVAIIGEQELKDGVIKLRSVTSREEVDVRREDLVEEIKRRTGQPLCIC
Sequence of eOD-GT8 (24-mer) (synthetic construct (engineered HIV-1 …)) (heavy, as listed by the source): as the sequence (heavy, as listed by the source) above
Sequence of eOD-GT8 (heptamer) (synthetic construct (engineered HIV-1 …)) (heavy, as listed by the source): as above

| Binder | binding result [1] | binding result [2] | other results |
| --- | --- | --- | --- |
| 12A12 V.Rev (antibody, V domains shown) VH: not shown VL: DIQMTQSPSSLSASVGDRVTITCQASQDISNYLNWYQQKPGKAPKLLIYDASNLETGVPSRFSGSGSGTDFTFTISSLQPEDIATYYCAVLEFFGPGTKVEIK | binds | – | – |
| VRC01 L34M (antibody, V domains shown) VH: QVQLVQSGGQMKKPGESMRISCRASGYEFIDCTMNWIRLAPGKRPEWMGWLKPRGGAVNYARPLQGRVTMTRDVYSDTAFLELRSLTVDDTAVYFCTRGKNCDYNWDFEHWGRGTPVIVSS VL: EIVLTQSPGTLSLSPGETAIISCRTSQYGSLAWYQQRPGQAPRLVIYSGSTRAAGIPDRFSGSRWGPDYNLTISNLESGDFGVYYCQQYEFFGQGTKVQVD | – | binds | – |
| DH651.1 with 33TL34 reverted to the germline-encoded 33YM34 (antibody, V domains shown) VH: QVQLVQSGGQMKKPGESMRISCRTSGYEFIECYMNWIRLAPGRRPEWMGWLKPRGGAVNYARSFQGRVTMTRDVYSDTAFLELRSLTPDDTAVYFCTRGKDCNYNWDFEHWGRGTPVTVSS VL: EIVLTQSPHPALLSPGETAIISCRTSQYGSLAWYQQRPGQAPRLVIYSGSTRAAGIPDRFSGSRWGPDYNLTISNLESGDLGVYYCQQYEFFGQGTKVQVD | – | no binding (tested: 100 μg/ml) | – |
| VRC01 T33Y (antibody, V domains shown) VH: QVQLVQSGGQMKKPGESMRISCRASGYEFIDCYLNWIRLAPGKRPEWMGWLKPRGGAVNYARPLQGRVTMTRDVYSDTAFLELRSLTVDDTAVYFCTRGKNCDYNWDFEHWGRGTPVIVSS VL: EIVLTQSPGTLSLSPGETAIISCRTSQYGSLAWYQQRPGQAPRLVIYSGSTRAAGIPDRFSGSRWGPDYNLTISNLESGDFGVYYCQQYEFFGQGTKVQVD | – | no binding (tested: 100 μg/ml) | – |
| VRC01 with 33TL34 reverted to the germline-encoded 33YM34 (antibody, V domains shown) VH: QVQLVQSGGQMKKPGESMRISCRASGYEFIDCYMNWIRLAPGKRPEWMGWLKPRGGAVNYARPLQGRVTMTRDVYSDTAFLELRSLTVDDTAVYFCTRGKNCDYNWDFEHWGRGTPVIVSS VL: EIVLTQSPGTLSLSPGETAIISCRTSQYGSLAWYQQRPGQAPRLVIYSGSTRAAGIPDRFSGSRWGPDYNLTISNLESGDFGVYYCQQYEFFGQGTKVQVD | – | no binding (tested: 100 μg/ml) | – |
| DH651.4 with 33TL34 reverted to the germline-encoded 33YM34 (antibody, V domains shown) VH: QVQLVQSGGQMKKPGESMRISCRASGYEFIDCYMNWIRLAPGRRPEWMGWLKPRGGAVSYARPLQGRVTMTRDVYSDTAFLELRSLTVDDTAVYFCTRGKTCDYNWDFAHWGQGTPVTVSS VL: EIVLTQSPGTLSLSPGETAIISCRTSQYGSLAWYQQRPGQAPRLVIYSGSTRAAGIPDRFSGSRWGPEYNLTISNLESGDFGVYYCQQYEFFGQGTKVQVD | – | no binding (tested: 100 μg/ml) | – |
| DH651.2 with 33TL34 reverted to the germline-encoded 33YM34 (antibody, V domains shown) VH: QVQLVQSGAQMKKPGESMRISCRASGYEFIDCYMNWIRLAPGRRPEWMGWLKPRGGAVNYARPLQGRVTMTRDVYSDTAFLELRSLTVDDTAVYFCTRGKTCDYNWDFAHWGQGTPVTVSS VL: EIVLTQSPGTLSLSPGETAIISCRTSQYGSLAWYQQRPGQAPRLVIYSGSTRAAGIPDRFSGSRWGPEYNLTISNLESGDFGVYYCQQYEFFGQGTKVQVD | – | no binding (tested: 100 μg/ml) | – |
| VRC02 with 33TL34 reverted to the germline-encoded 33YM34 (antibody, V domains shown) VH: QVQLVQSGGQMKKPGESMRISCQASGYEFIDCYMNWVRLAPGRRPEWMGWLKPRGGAVNYARPLQGRVTMTRDVYSDTAFLELRSLTADDTAVYYCTRGKNCDYNWDFEHWGRGTPVTVSS VL: EIVLTQSPGTLSLSPGETAIISCRTSQYGSLAWYQQRPGQAPRLVIYSGSTRAAGIPDRFSGSRWGPDYNLTIRNLESGDFGLYYCQQYEFFGQGTKVQVD | – | no binding (tested: 100 μg/ml) | – |
| VRC01 VJ.Rev (antibody, V domains shown) VH: not shown VL: EIVLTQSPATLSLSPGERATLSCRASQSVSSYLAWYQQKPGQAPRLLIYDASNRATGIPARFSGSGSGTDFTLTISSLEPEDFAVYYCQQYEFFGQGTKLEIK | binds | – | – |
| VRC23 V.Rev (antibody, V domains shown) VH: not shown VL: EIVMTQSPATLSVSPGERATLSCRASQSVSSNLAWYQQKPGQAPRLLIYGASTRATGIPARFSGSGSGTEFTLTISSLQSEDFAVYYCQQYETFGQGTKVEIK | – | – | binding result (Centromere protein B): binds; binding result (Jo-1 antigen): binds; binding result (Scl-70 antigen): binds; binding result (SSB (La) antigen): binds |
| VRC01 V.Rev (antibody, V domains shown) VH: not shown VL: EIVLTQSPGTLSLSPGERATLSCRASQSVSSSYLAWYQQKPGQAPRLLIYGASSRATGIPDRFSGSGSGTDFTLTISRLEPEDFAVYYCQQYEFFGQGTKVQVD | binds | – | – |
| VRC03 V.Rev (antibody, V domains shown) VH: not shown VL: EIVLTQSPGTLSLSPGERATLSCRASQSVSSSYLAWYQQKPGQAPRLLIYGASSRATGIPDRFSGSGSGTDFTLTISRLEPEDFAVYYCQQFEFFGLGSELEVH | binds | – | – |
| VRC18b V.Rev (antibody, V domains shown) VH: not shown VL: EIVLTQSPGTLSLSPGERATLSCRASQSVSSSYLAWYQQKPGQAPRLLIYGASSRATGIPDRFSGSGSGTDFTLTISRLEPEDFAVYYCQILEFFGRGTRVEMN | binds | – | – |
| VRC01 UCA (antibody, V domains shown, also called VRC01 lineage unmutated common ancestor; VRC01 UCA IgG) VH: not shown VL: EIVLTQSPGTLSLSPGERATLSCRASQSVSSSYLAWYQQKPGQAPRLLIYGASSRATGIPDRFSGSGSGTDFTLTISRLEPEDFAVYYCQQYEFFGQGTKLEIK | – | – | binding result (eOD-GT8 (24-mer)): binds; binding result (eOD-GT8 (heptamer)): binds; Kd [3]: < 0.1 nM and 0.25 nM; Kd [4]: 2400 nM and 2500 nM; koff [4]: 0.068 s⁻¹; kon [4]: 3000 M⁻¹ s⁻¹ |
| VRC20 V.Rev (antibody, V domains shown) VH: not shown VL: QSALTQPASVSGSPGQSITISCTGTSSDVGGYNYVSWYQQHPGKAPKLMIYEVSNRPSGVSNRFSGSKSGNTASLTISGLQAEDEADYYCNAFEFFGGGTKLTVL | – | – | binding result (Centromere protein B): binds |
